Assay results reported in US20250074943A1 (Amgen, published 2025).
Numbered stars: 1 amine (or outer) side, 2 acyl side, 3 side chain; on linkers, the order of the positions; unused ones are H or OH. Bridge positions count the residues as written; N and C are the ends. Ends that are not written are not given here. Ttds = non-peptide spacer, O=C(CCC(=O)[*:2])NCCCOCCOCCOCCCN[*:1]

Key:
[1] = target: T1, human FLT3 expressed on CHO cells (human, UniProt P36888 27-993); test: flow cytometry, biotin-labelled PepSP1462 detected with anti-streptavidin-AF488 antibody
T1 construct: whole, on cells; Negative control cell line; also called CHO huFLT3; CHO huFTL3
Procedure: (§2) Peptide PepSP1462, identified herein was biotin labeled. The biotin labeled peptide was detected using an anti-streptavidin antibody conjugated to AF488. The AF488-labeled peptide was detected directly.
(§3) Binding specificity of the labeled peptide for DLL3 was assessed using DLL3-negative cell lines. […] Cells were then washed twice with FACS buffer and incubated with an anti-streptavidin antibody conjugated to AF488 (Thermo Fisher). […] Cells were then washed twice with FACS buffer an resuspended in FACS buffer that contained 0.5 μg/ml propidium iodide. Cells were analyzed by flow cytometry, using an LSR Fortessa and FACSDiva software (Becton Dickinson) or Flow Jo (Flow Jo LLC).

[2] = target: T2, mouse DLL3 expressed on CHO cells (mouse, UniProt O88516 33-592); test: flow cytometry, 100 µM biotin-labelled PepSP1462 detected with anti-streptavidin-AF488 antibody; CHO huFLT3 as negative control cell line
T2 construct: whole, on cells; also called CHO muDLL3
T2 sequence (looked up): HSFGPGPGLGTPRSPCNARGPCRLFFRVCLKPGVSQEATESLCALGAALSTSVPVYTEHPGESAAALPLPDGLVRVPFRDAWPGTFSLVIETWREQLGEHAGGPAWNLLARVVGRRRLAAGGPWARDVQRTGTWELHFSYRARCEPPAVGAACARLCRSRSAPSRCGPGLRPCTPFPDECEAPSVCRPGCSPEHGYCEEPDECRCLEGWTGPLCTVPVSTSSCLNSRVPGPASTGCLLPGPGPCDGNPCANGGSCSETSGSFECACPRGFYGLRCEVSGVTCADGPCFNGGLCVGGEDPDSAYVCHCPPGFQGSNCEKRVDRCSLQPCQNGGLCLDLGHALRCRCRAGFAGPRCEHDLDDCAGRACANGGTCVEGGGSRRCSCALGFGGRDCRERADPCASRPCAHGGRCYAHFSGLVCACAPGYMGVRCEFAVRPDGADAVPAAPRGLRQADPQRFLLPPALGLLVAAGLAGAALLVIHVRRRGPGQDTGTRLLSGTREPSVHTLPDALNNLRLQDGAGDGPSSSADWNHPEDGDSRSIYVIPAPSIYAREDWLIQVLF
Procedure: as §2, §3

[3] = target: T3, rat DLL3 expressed on CHO cells (rat, UniProt O88671 33-589); test: as above
T3 construct: whole, on cells; also called CHO rtDLL3; High CHO rtDLL3
T3 sequence (looked up): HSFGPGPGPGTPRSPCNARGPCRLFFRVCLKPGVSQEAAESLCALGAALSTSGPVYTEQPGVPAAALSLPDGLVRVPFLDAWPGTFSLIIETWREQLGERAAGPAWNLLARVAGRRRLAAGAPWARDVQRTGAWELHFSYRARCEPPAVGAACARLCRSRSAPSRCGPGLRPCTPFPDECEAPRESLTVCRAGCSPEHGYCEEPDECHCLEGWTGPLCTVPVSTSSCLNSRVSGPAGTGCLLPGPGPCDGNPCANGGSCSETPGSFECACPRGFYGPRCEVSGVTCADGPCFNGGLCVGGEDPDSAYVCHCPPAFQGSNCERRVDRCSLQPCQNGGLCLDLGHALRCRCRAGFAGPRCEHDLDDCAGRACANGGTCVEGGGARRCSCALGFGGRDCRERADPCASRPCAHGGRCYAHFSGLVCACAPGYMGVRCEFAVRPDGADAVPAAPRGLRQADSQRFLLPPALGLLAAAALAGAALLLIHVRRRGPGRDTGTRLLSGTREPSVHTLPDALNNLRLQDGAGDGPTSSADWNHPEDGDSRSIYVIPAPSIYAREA
Procedure: as §2, §3

[4] = target: T4, recombinant DLL3 ectodomain (rhDLL3-Fc) (human, UniProt Q9NYJ7 27-492, biotinylated (NHS-LC-LC-biotin) in the BLI and SPR assays); test: BLI (Octet), biotinylated rhDLL3-Fc on streptavidin sensors
T4 construct: also called rDLL3-Fc; recombinant human DLL3 (rDLL3); not shown: Fc part
T4 sequence: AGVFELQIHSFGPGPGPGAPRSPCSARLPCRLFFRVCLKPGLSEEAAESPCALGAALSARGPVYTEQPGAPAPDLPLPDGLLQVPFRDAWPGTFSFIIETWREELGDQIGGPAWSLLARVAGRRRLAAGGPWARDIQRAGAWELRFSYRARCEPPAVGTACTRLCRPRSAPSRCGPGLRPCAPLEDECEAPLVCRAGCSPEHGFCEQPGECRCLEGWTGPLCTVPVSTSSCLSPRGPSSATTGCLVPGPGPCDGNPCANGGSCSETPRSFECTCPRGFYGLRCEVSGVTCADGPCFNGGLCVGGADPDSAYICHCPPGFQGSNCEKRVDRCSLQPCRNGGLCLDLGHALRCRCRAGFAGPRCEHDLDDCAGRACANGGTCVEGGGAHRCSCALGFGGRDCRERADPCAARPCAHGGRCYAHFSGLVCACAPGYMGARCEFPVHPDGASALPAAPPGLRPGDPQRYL
Procedure: (§1) Binding kinetic assays were performed using Bio-layer interferometry (BLI) technology. The recombinant DLL3 ectodomain (rhDLL3-Fc) was biotinylated using EZ-Link Sulfo-NHS-LC-LC-Biotin Kit according to the manufacturer's protocol (Pierce by Thermo Fisher Scientific). The recombinant protein was incubated with an excess of NHS-LC-LC Biotin ester, in a molar ratio of 1:3 (protein: biotin), at 25° C. for 90 min. The un-reacted biotin ester was removed by subsequent buffer exchange on 0.5 ml Zeba spin desalting columns 7K MWCO (Pierce by Thermo Fisher Scientific).

[5] = target: T4, recombinant DLL3 ectodomain (rhDLL3-Fc); test: BLI (Octet), biotinylated rhDLL3-Fc on streptavidin sensors; second listing of 1161 in Table 4, rounded
Procedure: as §1

[6] = target: T4, recombinant DLL3 ectodomain (rhDLL3-Fc); test: kinetic assay, method not told for this table (BLI, SPR or flow cytometry)

B1: PepSP1462 labeled with biotin (peptide)
peptide: Ac-AETVEFWWCNGNSENWTCTWGG-{Ttds-K(PEG4-DBCO)-NH2}
modifications: disulfide 9-18 (inferred); also: biotin label, site of attachment not given here
notes: also called PepSP1462-biotin peptide; labeled PepSP1462 peptide
- binding result [1]: no binding (tested: 100 µM)
- binding result [2]: binds
- binding result [3]: binds

B2: PepSP1161 (peptide)
peptide: AETVEFWDCWGNTDDWTCTW-NH2
modifications: disulfide 9-18 (inferred)
- Kd [4]: 42.5 nM
- RT (residence time) [4]: 87.8 s
- Kd [5]: 43 nM

B3: PepSP1321 (peptide)
peptide: Ac-AETVEFWGCTGTWGNETCWWGG-{Ttds-Lys-NH2}
modifications: disulfide 9-18 (inferred)
- RT [6]: 369

B4: PepSP1324 (peptide)
peptide: Ac-AETVEFWWCNGNSENWTCTWGG-{Ttds-Lys-NH2}
modifications: disulfide 9-18 (inferred)
- RT [6]: 189

B5: PepSP1342 (peptide)
peptide: Ac-AETVEFWWCNGNSENWTCTWGG-{Ttds-K(Ttds-Ttds)-NH2}
modifications: disulfide 9-18 (inferred)
notes: also called PspSP1342
- RT [6]: 199
